Data published in paper PMC6123492, “Structural and biochemical insights into small RNA 3′ end trimming by Arabidopsis SDN1”.

Columns and labels:
[1] = molecular target: T1, SDN1 Q21A (Arabidopsis thaliana, UniProt A3KPE8 2-409, Q21A); experiment: EMSA; not impaired; EMSA: 50 mM Tris pH 8.0, 100 mM NaCl, 1 mM DTT, no Mg2+, 2 nM RNA, on ice 30 min, 8% native PAGE in 0.5x TBE; NMR: 50 mM Na2HPO4 pH 7.4, 100 mM NaCl, 10% D2O; conditions: protein: recombinant; tags: His-SUMO tag removed; label: 5' 32P; single strand
T1 sequence: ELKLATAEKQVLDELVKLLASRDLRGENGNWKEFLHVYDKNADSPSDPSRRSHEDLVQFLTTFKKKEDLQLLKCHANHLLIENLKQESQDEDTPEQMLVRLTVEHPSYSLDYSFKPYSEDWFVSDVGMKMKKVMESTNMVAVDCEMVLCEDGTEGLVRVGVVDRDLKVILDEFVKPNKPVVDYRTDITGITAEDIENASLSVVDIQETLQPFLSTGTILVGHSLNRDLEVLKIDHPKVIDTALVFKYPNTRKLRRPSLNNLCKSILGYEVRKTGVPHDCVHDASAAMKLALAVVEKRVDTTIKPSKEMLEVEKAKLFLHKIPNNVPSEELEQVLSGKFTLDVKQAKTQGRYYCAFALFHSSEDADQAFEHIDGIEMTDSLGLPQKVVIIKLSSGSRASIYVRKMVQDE

[2] = molecular target: T2, SDN1 S22A (Arabidopsis thaliana, UniProt A3KPE8 2-409, S22A); experiment: as above; conditions: protein: recombinant; tags: His-SUMO tag removed; label: 5' 32P; single strand
T2 sequence: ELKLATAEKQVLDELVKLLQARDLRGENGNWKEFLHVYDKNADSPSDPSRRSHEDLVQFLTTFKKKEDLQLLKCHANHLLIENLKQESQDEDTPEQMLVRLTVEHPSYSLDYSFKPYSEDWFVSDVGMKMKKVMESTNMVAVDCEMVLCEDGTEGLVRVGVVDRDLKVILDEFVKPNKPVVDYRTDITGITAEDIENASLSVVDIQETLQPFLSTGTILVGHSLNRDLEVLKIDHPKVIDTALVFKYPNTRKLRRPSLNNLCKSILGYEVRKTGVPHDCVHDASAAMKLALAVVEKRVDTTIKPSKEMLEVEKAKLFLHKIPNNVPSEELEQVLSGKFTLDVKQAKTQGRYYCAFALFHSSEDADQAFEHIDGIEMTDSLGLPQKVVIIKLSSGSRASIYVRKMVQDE

[3] = molecular target: T3, SDN1 F356A (Arabidopsis thaliana, UniProt A3KPE8 2-409, F356A); experiment: EMSA; no Mg2+; not impaired; EMSA: 50 mM Tris pH 8.0, 100 mM NaCl, 1 mM DTT, no Mg2+, 2 nM RNA, on ice 30 min, 8% native PAGE in 0.5x TBE; NMR: 50 mM Na2HPO4 pH 7.4, 100 mM NaCl, 10% D2O; conditions: protein: recombinant; tags: His-SUMO tag removed; label: 5' 32P; single strand
T3 sequence: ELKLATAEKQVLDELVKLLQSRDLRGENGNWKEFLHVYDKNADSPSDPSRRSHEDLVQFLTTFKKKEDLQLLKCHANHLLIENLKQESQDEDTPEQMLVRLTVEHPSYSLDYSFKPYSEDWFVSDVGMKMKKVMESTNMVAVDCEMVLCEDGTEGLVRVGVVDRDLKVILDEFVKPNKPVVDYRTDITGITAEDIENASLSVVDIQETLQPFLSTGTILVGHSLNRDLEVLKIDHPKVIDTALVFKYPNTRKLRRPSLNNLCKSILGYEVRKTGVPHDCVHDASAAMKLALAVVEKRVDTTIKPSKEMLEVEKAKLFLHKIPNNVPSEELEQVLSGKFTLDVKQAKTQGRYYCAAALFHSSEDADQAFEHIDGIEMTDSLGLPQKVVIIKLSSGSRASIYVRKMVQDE

[4] = molecular target: T4, SDN1 TEV (Arabidopsis thaliana, UniProt A3KPE8 2-300+=ENLYFQS+301-409, internal_change); experiment: UV crosslinking + TEV mapping; RNA on RRM fragment; EMSA: 50 mM Tris pH 8.0, 100 mM NaCl, 1 mM DTT, no Mg2+, 2 nM RNA, on ice 30 min, 8% native PAGE in 0.5x TBE; NMR: 50 mM Na2HPO4 pH 7.4, 100 mM NaCl, 10% D2O; conditions: protein: recombinant; tags: His-SUMO tag removed; label: 5' 32P on target strand; unpaired miR166 3' end (T6-type); target 3' overhang 4 nt
T4 sequence: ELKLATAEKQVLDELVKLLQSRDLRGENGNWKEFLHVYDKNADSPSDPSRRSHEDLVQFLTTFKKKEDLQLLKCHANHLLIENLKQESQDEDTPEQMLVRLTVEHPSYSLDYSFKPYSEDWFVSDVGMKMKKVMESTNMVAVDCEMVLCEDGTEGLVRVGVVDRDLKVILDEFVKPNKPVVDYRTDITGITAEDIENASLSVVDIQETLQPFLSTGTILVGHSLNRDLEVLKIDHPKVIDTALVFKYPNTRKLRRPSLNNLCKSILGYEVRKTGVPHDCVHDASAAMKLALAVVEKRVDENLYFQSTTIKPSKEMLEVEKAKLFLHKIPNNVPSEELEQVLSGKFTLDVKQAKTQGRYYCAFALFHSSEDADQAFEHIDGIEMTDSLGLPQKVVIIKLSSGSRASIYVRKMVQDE

[5] = molecular target: T4, SDN1 TEV; experiment: UV crosslinking + TEV mapping; RNA on DEDDh (ΔC) fragment; EMSA: 50 mM Tris pH 8.0, 100 mM NaCl, 1 mM DTT, no Mg2+, 2 nM RNA, on ice 30 min, 8% native PAGE in 0.5x TBE; NMR: 50 mM Na2HPO4 pH 7.4, 100 mM NaCl, 10% D2O; conditions: protein: recombinant; tags: His-SUMO tag removed; label: 5' 32P on target strand; unpaired miR166 3' end (T6-type); target 3' overhang 4 nt

UCGGACCAGGCUUCAUCCCCC (ssRNA) [miR166]: binds [1]; binds [2]; binds [3].

B1: miR166:5'-IUU (dsRNA)
RNA 1: UCGGACCAGGCUUCAUCCCCC
RNA 2: GAUUCCCUUGAAGCUUGGUCCGGAUUA
modifications: 5-iodoU at 3,4 of strand 2
B1: binds [4].

B2: miR166:3'-IUU (dsRNA)
RNA 1: UCGGACCAGGCUUCAUCCCCC
RNA 2: GAUUCCCUUGAAGCUUGGUCCGGAUUA
modifications: 5-iodoU at 25,26 of strand 2
B2: binds [5].
